Experimental data taken from patent publication US7247611 (University of Pennsylvania, dated 2007).

Biological target: T1, single chain urokinase-type plasminogen activator (UniProt P00749 21-431, radiolabeled with 125I (iodobeads) in the binding assays)
T1 construct: scuPA alone, without peptide; also called scuPA; recombinant scuPA
Assay: 125I-scuPA on LM-TK- cells with peptide (FIG. 1A); indirect read-out of the peptide acting on scuPA
Procedure: The cells were washed four times with binding buffer, solubilized in 0.1 N NaOH, and the cell extract was assessed for radioactivity. […] Assays were repeated at least three times, and data presented herein represent the mean and standard deviation.

B1: peptide EEIIMR (SEQ ID NO: 5) (peptide)
peptide: EEIIMR
notes: Synthetic variant of EEIIMD with Arg at the carboxyl terminus; also called control peptide EEIIMR
scuPA-binding-promoting activity relative to peptide EEIIMD: ~20%
